T1: human IL19 (human, UniProt Q9UHD0 25-177)
T1 sequence (looked up): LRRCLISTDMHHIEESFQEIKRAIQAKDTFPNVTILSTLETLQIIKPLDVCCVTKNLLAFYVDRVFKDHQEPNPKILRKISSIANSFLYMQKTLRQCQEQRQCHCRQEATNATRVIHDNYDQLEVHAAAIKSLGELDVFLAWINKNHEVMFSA

T2: INF-γ (Homo sapiens (Human), UniProt P01579 24-161)
T2 sequence: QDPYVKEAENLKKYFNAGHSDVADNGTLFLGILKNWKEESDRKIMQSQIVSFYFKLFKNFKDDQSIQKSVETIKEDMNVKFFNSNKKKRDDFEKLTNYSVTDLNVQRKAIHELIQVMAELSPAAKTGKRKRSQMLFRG

T3: human IL20 (human, UniProt Q9NYY1 25-176)
T3 sequence (looked up): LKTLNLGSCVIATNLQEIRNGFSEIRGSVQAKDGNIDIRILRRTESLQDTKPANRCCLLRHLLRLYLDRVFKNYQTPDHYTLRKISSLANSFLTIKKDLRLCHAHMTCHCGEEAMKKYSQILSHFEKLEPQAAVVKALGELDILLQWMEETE

T4: human IL26 (human, UniProt Q9NPH9 22-171, limits assumed)
T4 sequence (looked up): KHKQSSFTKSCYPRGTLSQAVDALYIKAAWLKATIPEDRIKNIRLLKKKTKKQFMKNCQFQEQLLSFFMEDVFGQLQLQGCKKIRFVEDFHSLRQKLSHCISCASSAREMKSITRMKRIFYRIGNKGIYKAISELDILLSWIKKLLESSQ

T5: human IL24 (human, UniProt Q13007 52-206, limits assumed)
T5 sequence (looked up): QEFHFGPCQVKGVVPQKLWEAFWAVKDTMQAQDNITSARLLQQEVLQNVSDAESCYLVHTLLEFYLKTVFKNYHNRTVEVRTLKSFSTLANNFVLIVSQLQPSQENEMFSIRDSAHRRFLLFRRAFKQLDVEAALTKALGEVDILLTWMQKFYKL

T6: mouse IL-22 (mouse, UniProt Q9JJY9 34-179)
T6 construct: also called mIL-22; mIL22
T6 sequence (looked up): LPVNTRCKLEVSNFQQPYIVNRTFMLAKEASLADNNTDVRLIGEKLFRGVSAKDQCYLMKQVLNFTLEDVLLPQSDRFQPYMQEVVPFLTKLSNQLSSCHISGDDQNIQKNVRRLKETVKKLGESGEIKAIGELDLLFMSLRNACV

T7: human IL-22 (human, UniProt Q9GZX6 34-179)
T7 construct: also called hIL-22; hIL22
T7 sequence (looked up): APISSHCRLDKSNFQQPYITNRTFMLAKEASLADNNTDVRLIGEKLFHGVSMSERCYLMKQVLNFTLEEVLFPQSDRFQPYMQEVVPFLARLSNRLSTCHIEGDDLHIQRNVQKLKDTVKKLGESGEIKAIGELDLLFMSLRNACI


Experiments:
[1] = biological target: IL-22 (CXCL1 assay in HT29 cells); experiment: cell-based or functional assay
[2] = biological target: T1, human IL19; experiment: ELISA on coated antigen (1 ug/ml), anti-hIgG-HRP, OD450;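 note: specificity check of antibodies applied at 100 ng/ml to wells bearing human or mouse IL-22, related cytokines or an unrelated control antigen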
Method: (§1) Plates were coated with 100 μl antigens at a concentration of 1 μg/ml. The plates were exposed to the antibodies at a concentration of 100 ng/ml. The bound antibodies were detected with anti-hIgG-HRP by the ELISA assay.

[3] = biological target: T2, INF-γ; experiment: as above
Method: as §1

[4] = biological target: T3, human IL20; experiment: as above
Method: as §1

[5] = biological target: T4, human IL26; experiment: as above
Method: as §1

[6] = biological target: T5, human IL24; experiment: as above
Method: as §1

[7] = biological target: INF-λ1 (Homo sapiens (Human), UniProt Q8IU54 20-200); experiment: as above
Method: as §1

[8] = biological target: T6, mouse IL-22; experiment: SPR (SierraSensors SPR-2), mIL-22 immobilized on chip, antibody injected, heterogeneous ligand model
Method: (§2) The affinity of the 10 antibodies of Table 1 was measured by Surface Plasma Resonance (SPR) using a capture assay on a SPR-2 instrument (SierraSensiors, Hamburg, Germany). The antigens hIL-22 and mIL-22 were immobilized on chips. The running buffer for the assay contained 10 mM HEPES with a pH of 7.4, 500 mM NaCl, and 0.05% TWEEN® 20. […] The off-rate was measured for 6 minutes. Binding constants were calculated using the curve fitting software Analyzer2 (Sierra Sensors). Sensorgrams were analyzed with the instrument specific software and with BIAevaluation 4.1 software. The binding data were analyzed using the Langmuir 1:1 model (human IL-22) or a model for a heterogeneous ligand (mouse IL-220).

[9] = biological target: T7, human IL-22; experiment: SPR (SierraSensors SPR-2), hIL-22 immobilized on chip, antibody injected, Langmuir 1:1 model
Method: as §2

[10] = biological target: T6, mouse IL-22; experiment: affinity ELISA and titration ELISA, CPE library screen
From the text: (§3) Specifically, the CPE™ variants were screened by affinity ELISA for mouse IL-22 (mIL-22) binding affinity. […] The primary CPE™ hits were re-arrayed, re-transfected, and screened again by affinity ELISA and also by titration ELISA using both mIL-22 and human IL-22 (hIL-22) for antibodies that bind to both mIL-22 and hIL-22.

[11] = biological target: T7, human IL-22; experiment: as above
From the text: as §3

Chain of INF-λ1 (Q8IU54 20-200 limits assumed): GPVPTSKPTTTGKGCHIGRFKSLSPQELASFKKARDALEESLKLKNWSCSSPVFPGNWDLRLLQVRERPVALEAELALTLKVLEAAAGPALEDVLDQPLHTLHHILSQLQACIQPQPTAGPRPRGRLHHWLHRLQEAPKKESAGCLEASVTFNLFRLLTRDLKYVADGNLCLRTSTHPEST

IC50 (parameter C of the log-logit fit y=(A-D)/(1+(x/C)^B)+D) of inhibition of IL-22-induced CXCL1 production in HT29 cells [1] [ng/ml]	binding result [2]	binding result [3]	binding result [4]	binding result [5]	binding result [6]	binding result [7]	Kd [8] [nM]	koff [8] [s⁻¹]	Kd [9] [nM]	koff [9] [s⁻¹]	binding result [10]	binding result [11]	Binder
124	no binding (tested: 100 ng/ml)	no binding (tested: 100 ng/ml)	no binding (tested: 100 ng/ml)	no binding (tested: 100 ng/ml)	no binding (tested: 100 ng/ml)	no binding (tested: 100 ng/ml)	40.2	0.00137	0.156	5.93e-05	–	–	CPE-LC-E049K (antibody, V domains shown, One of the mutant antibodies of the CPE library made from hum10 (CDR positions substituted); built here as hum10 with E49K in the light chain, read from its name) VH: QVQLVQSGAEVKKPGASVKVSCKASGYIFTSYWIHWIRQPPGKGLEWIGRIYPGTGNTYYNEKFKGRVTISADKSISTAYLQWSSLKASDTAMYYCARSYDSSCAYWGQGTLVTVSS VL: AIQLTQSPSSLSASVGDRVTITCSASSSVSYMHWYLQKPGQSPQLLIYKTSKLASGVPSRFSGSGSGTDFTFTISSLEAEDAATYYCQQWSSNPYITFGQGTKVEIKR
–	–	–	–	–	–	–	–	–	–	–	binds	binds	CPS-01 (antibody, V domains shown, Mutant of humanized hum10, whole antibody expressed in CHO cells; also called LC-03 / HC-08) VH: QVQLVQSGAEVKKPGASVKVSCKASGYIFRSYWIHWIRQPPGKGLEWIGRIYPGTGRTYYNEKFKGRVTISADKSISTAYLQWSSLKASDTAMYYCARSYDSSVAYWGQGTLVTVSS VL: AIQLTQSPSSLSASVGDRVTITCSASSSVSYMHWYLQKPGQSPQLLIYKTSKLASGVPSRFSGSGSGTDFTFTISSLEAEDAATYYCQQWSSNPYITFGQGTKVEIKR
51	no binding (tested: 100 ng/ml)	no binding (tested: 100 ng/ml)	no binding (tested: 100 ng/ml)	no binding (tested: 100 ng/ml)	no binding (tested: 100 ng/ml)	no binding (tested: 100 ng/ml)	4.23	0.00118	0.0292	3.74e-05	–	–	CPS-04 (antibody, V domains shown, Mutant of humanized hum10, whole antibody expressed in CHO cells; also called LC-07 / HC-09) VH: QVQLVQSGAEVKKPGASVKVSCKASGYIFRSYWIHWIRQPPGKGLEWIGRIYPGTGNTYYNRKFKGRVTISADKSISTAYLQWSSLKASDTAMYYCARSYDSSVAYWGQGTLVTVSS VL: AIQLTQSPSSLSASVGDRVTITCSASSSVSYMHWYLQKPGQSPQLLIYKTSKLLSGVPSRFSGSGSGTDFTFTISSLEAEDAATYYCQQWSSNPYITFGQGTKVEIKR
–	–	–	–	–	–	–	–	–	–	–	binds	binds	CPS-11 (antibody, V domains shown, Mutant of humanized hum10, whole antibody expressed in CHO cells; also called LC-06 / HC-25) VH: QVQLVQSGAEVKKPGASVKVSCKASGYIFRSYWIHWIRQPPGKGLEWIGRIYPGTGRTYYNEKFKGRVTISADKSISTAYLQWSSLKASDTAMYYCARSYDYSVAYWGQGTLVTVSS VL: AIQLTQSPSSLSASVGDRVTITCSASSSVSYMHWYLQKPGQSPQLLIYKTRKLASGVPSRFSGSGSGTDFTFTISSLEAEDAATYYCQQWSSNPYITFGQGTKVEIKR
–	–	–	–	–	–	–	–	–	–	–	binds	binds	CPS-20 (antibody, V domains shown, Mutant of humanized hum10, whole antibody expressed in CHO cells; also called LC-11 / HC-50) VH: QVQLVQSGAEVKKPGASVKVSCKASGYIFRSYWIHWIRQPPGKGLEWIGRIYPGTGNTYYNRKFKGRVTISADKSISTAYLQWSSLKASDTAMYYCARSYMSSVGYWGQGTLVTVSS VL: AIQLTQSPSSLSASVGDRVTITCSASSSVSKMHWYLQKPGQSPQLLIYETRKLASGVPSRFSGSGSGTDFTFTISSLEAEDAATYYCQQWSSNPYITFGQGTKVEIKR
155	no binding (tested: 100 ng/ml)	no binding (tested: 100 ng/ml)	no binding (tested: 100 ng/ml)	no binding (tested: 100 ng/ml)	no binding (tested: 100 ng/ml)	no binding (tested: 100 ng/ml)	6.27	0.00158	0.0522	6.94e-05	–	–	CPS-17 (antibody, V domains shown, Mutant of humanized hum10, whole antibody expressed in CHO cells; also called LC-04 / HC-49) VH: QVQLVQSGAEVKKPGASVKVSCKASGYIFRSYWIHWIRQPPGKGLEWIGRIYPGTGNTYYNRKFKGRVTISADKSISTAYLQWSSLKASDTAMYYCARSYMYSVAYWGQGTLVTVSS VL: AIQLTQSPSSLSASVGDRVTITCSASSSVSYMHWYLQKPGQSPQLLIYETRKLASGVPSRFSGSGSGTDFTFTISSLEAEDAATYYCQQWSSNPYITFGQGTKVEIKR
44.2	no binding (tested: 100 ng/ml)	no binding (tested: 100 ng/ml)	no binding (tested: 100 ng/ml)	no binding (tested: 100 ng/ml)	no binding (tested: 100 ng/ml)	no binding (tested: 100 ng/ml)	4.8	0.00123	0.0314	3.55e-05	–	–	CPS-14 (antibody, V domains shown, Mutant of humanized hum10, whole antibody expressed in CHO cells; also called LC-04 / HC-31) VH: QVQLVQSGAEVKKPGASVKVSCKASGYIFTSYWIHWIRQPPGKGLEWIGRIYPGTGRTYYNRKFKGRVTISADKSISTAYLQWSSLKASDTAMYYCARSYDYSVAYWGQGTLVTVSS VL: AIQLTQSPSSLSASVGDRVTITCSASSSVSYMHWYLQKPGQSPQLLIYETRKLASGVPSRFSGSGSGTDFTFTISSLEAEDAATYYCQQWSSNPYITFGQGTKVEIKR
–	–	–	–	–	–	–	–	–	–	–	binds	binds	CPS-10 (antibody, V domains shown, Mutant of humanized hum10, whole antibody expressed in CHO cells; also called LC-05 / HC-25) VH: QVQLVQSGAEVKKPGASVKVSCKASGYIFRSYWIHWIRQPPGKGLEWIGRIYPGTGRTYYNEKFKGRVTISADKSISTAYLQWSSLKASDTAMYYCARSYDYSVAYWGQGTLVTVSS VL: AIQLTQSPSSLSASVGDRVTITCSASSSVSYMHWYLQKPGQSPQLLIYETSKLLSGVPSRFSGSGSGTDFTFTISSLEAEDAATYYCQQWSSNPYITFGQGTKVEIKR
–	–	–	–	–	–	–	–	–	–	–	binds	binds	CPS-16 (antibody, V domains shown, Mutant of humanized hum10, whole antibody expressed in CHO cells; also called LC-03 / HC-49) VH: QVQLVQSGAEVKKPGASVKVSCKASGYIFRSYWIHWIRQPPGKGLEWIGRIYPGTGNTYYNRKFKGRVTISADKSISTAYLQWSSLKASDTAMYYCARSYMYSVAYWGQGTLVTVSS VL: AIQLTQSPSSLSASVGDRVTITCSASSSVSYMHWYLQKPGQSPQLLIYKTSKLASGVPSRFSGSGSGTDFTFTISSLEAEDAATYYCQQWSSNPYITFGQGTKVEIKR

Reference: patent US20210230263A1 (BIOATLA, published 2021)
